Assay results published in patent US20040082509A1 (XIGEN S A, published 2004).

Molecular target: recombinant JNK1α1 (UniProt P45983-2 1-384)
Assay: cell-based or functional assay

Sequence of recombinant JNK1α1 (P45983 other isoform, or with tags, fused parts or gaps limits assumed): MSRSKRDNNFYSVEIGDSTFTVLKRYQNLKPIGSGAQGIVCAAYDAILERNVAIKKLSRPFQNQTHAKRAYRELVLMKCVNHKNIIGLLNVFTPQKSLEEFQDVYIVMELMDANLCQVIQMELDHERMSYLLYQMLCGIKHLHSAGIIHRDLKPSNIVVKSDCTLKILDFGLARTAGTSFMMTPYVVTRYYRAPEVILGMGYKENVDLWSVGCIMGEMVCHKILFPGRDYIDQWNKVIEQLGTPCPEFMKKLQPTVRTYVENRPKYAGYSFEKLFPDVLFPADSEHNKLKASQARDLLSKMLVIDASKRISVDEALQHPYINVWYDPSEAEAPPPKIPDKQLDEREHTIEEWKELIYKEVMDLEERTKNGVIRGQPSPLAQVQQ

B1: L-JBD20 peptide (20 amino acid minimal JNK-inhibitory sequence of JIP-IB1) (peptide)
peptide: RPKRPTTLNLFPQVPRSQDT
~1000 nM: IC50, phosphorylation of the JNK target ATF2 | IC50, phosphorylation of the JNK target IRS-1 | IC50, phosphorylation of the JNK target MADD | IC50, phosphorylation of the JNK target bcl-xl
